Literature values in US9925277B2, “Polynucleotide compositions containing amino acids” (ModernaTX, Inc., priority 2013, dated 2018).

Biological target: Factor IX (Homo sapiens, UniProt P00740, R384L)
Conditions: mutation at position R338L

Sequence of Factor IX (P00740 47-461 R384L): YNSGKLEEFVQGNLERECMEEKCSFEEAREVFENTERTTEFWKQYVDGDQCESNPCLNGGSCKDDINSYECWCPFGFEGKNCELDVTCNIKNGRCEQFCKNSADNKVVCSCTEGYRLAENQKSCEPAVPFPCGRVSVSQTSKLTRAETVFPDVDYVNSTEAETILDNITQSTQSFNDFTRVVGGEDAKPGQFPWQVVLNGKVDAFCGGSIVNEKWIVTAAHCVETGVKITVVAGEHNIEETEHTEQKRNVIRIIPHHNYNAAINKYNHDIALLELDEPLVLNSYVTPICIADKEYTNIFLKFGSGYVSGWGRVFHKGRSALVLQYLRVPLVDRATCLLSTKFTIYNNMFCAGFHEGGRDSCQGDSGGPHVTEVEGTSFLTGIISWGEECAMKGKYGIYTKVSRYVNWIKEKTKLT

In the case of “FIX Padua: Factor IX protein with mutation at position R338L, hyperactive naturally occurring variant”, the “increased activity of Factor IX protein” value is listed as 10 fold.
